Measured values published in patent US20120316071A1 (published 2012).

Experiments:
[1] = molecular target: T1, rHuman Notch-1/Fc Chimera, CF (R&D Systems Cat#3647-TK) (human, UniProt P46531 19-526); experiment: MSD multispot ECL, antigen spotted on plate; Fab 0.1275 uM; blank spot 530
T1 construct: Bought recombinant protein; Fc part of the bought chimera not given

[2] = molecular target: T2, Recombinant Human DLL4 (R&D Systems Cat#1506-D4/CF) (human, UniProt Q9NR61 27-524); experiment: as above
T2 construct: Bought recombinant protein; also called delta-like protein 4; rHuman DLL4

[3] = molecular target: T3, rHuman CD44/Fc Chimera, CF (R&D Systems Cat#3660-CD) (human, UniProt P16070 21-220); experiment: as above
T3 construct: Bought recombinant protein; Fc part of the bought chimera not given

[4] = molecular target: T4, rHuman Erythropoietin R/Fc Chimera, CF (R&D Systems Cat#963-ER) (human, UniProt P19235 25-250); experiment: as above
T4 construct: Bought recombinant protein; also called EPO R/Fc; Epo R; Fc part of the bought chimera not given
T4 sequence (looked up): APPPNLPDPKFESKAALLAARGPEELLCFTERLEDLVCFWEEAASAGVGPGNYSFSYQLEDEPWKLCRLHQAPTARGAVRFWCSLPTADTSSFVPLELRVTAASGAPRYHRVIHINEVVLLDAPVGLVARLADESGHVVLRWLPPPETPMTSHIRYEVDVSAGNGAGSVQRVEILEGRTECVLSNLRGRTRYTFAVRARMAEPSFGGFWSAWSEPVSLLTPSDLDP

[5] = molecular target: T5, rHuman EGF R/Fc Chimera, CF (R&D Systems Cat#344-ER) (human, UniProt P00533 25-645); experiment: as above
T5 construct: Bought recombinant protein; also called epidermal growth factor receptor; Fc part of the bought chimera not given

[6] = molecular target: T6, rHuman ErbB2/Fc Chimera, CF (R&D Systems Cat#1129-ER) (human, UniProt P04626 23-652); experiment: as above
T6 construct: Bought recombinant protein; also called human epidermal growth factor 2 receptor; Fc part of the bought chimera not given

[7] = molecular target: T7, rHuman IGF-1 sR, CF (R&D Systems Cat#391-GR) (human, UniProt P08069 31-932); experiment: as above
T7 construct: Bought recombinant soluble receptor; also called insulin-like growth factor-1 soluble receptor

[8] = molecular target: T8, rHuman P-Cadherin/Fc Chimera, CF (R&D Systems Cat#861-PC) (human, UniProt P22223 108-654); experiment: as above
T8 construct: Bought recombinant protein; Fc part of the bought chimera not given

[9] = molecular target: T9, rHuman HGF R/c-MET/Fc Chimera, CF (R&D Systems Cat#358-MT/CF) (human, UniProt P08581 25-932); experiment: as above
T9 construct: Bought recombinant protein; also called HGF R/Fc; hepatocyte growth factor receptor; Fc part of the bought chimera not given

[10] = molecular target: T10, rHuman IGF-1 sR, CF (R&D Systems Cat#391-GR) (human, UniProt P08069 31-932); experiment: Multispot ECL (MSD), antigen spotted on plate, Fab 1000 nM; blank spot 1133
T10 construct: Bought recombinant soluble receptor; also called insulin-like growth factor-1 soluble receptor

[11] = molecular target: T11, rHuman Erythropoietin R/Fc Chimera, CF (R&D Systems Cat#963-ER) (human, UniProt P19235 25-250); experiment: as above
T11 construct: Bought recombinant protein; also called EPO R/Fc; Epo R; Fc part of the bought chimera not given
T11 sequence (looked up): T4 sequence (looked up)

[12] = molecular target: T12, Recombinant Human DLL4 (R&D Systems Cat#1506-D4/CF) (human, UniProt Q9NR61 27-524); experiment: as above
T12 construct: Bought recombinant protein; also called rHuman DLL4; delta-like protein 4

[13] = molecular target: T13, rHuman Notch-1/Fc Chimera, CF (R&D Systems Cat#3647-TK) (human, UniProt P46531 19-526); experiment: as above
T13 construct: Bought recombinant protein; Fc part of the bought chimera not given

[14] = molecular target: T11, rHuman Erythropoietin R/Fc Chimera, CF …; experiment: Multispot ECL (MSD), antigen spotted on plate, Fab 500 nM; blank spot 680
[15] = molecular target: T13, rHuman Notch-1/Fc Chimera, CF (R&D …); experiment: as above
[16] = molecular target: T14, Recombinant Human DLL4 (R&D Systems Cat#1506-D4/CF) (human, UniProt Q9NR61 27-524); experiment: MSD multispot ECL, antigen spotted on plate, Fab 176.3 nM; blank spot 346
T14 construct: Bought from R&D Systems; also called rHuman DLL4; delta-like protein 4

[17] = molecular target: T15, rHuman HGF R/c-MET/Fc Chimera, CF (R&D Systems Cat#358-MT/CF) (human, UniProt P08581 25-932); experiment: as above
T15 construct: Bought from R&D Systems; also called HGF R/Fc; hepatocyte growth factor receptor (HGF R/c-Met); not shown: Fc of the bought chimera

[18] = molecular target: T16, rHuman P-Cadherin/Fc Chimera, CF (R&D Systems Cat#861-PC) (human, UniProt P22223 108-654); experiment: as above
T16 construct: Bought from R&D Systems; not shown: Fc of the bought chimera

[19] = molecular target: T17, rHuman EGF R/Fc Chimera, CF (R&D Systems Cat#344-ER) (human, UniProt P00533 25-645); experiment: as above
T17 construct: Bought from R&D Systems; also called epidermal growth factor receptor (EGF R); not shown: Fc of the bought chimera

B1: Fab VH4-34_IGHD7-27*01_IGHJ4*01 & L5_IGKJ1*01 (Fab, V domains shown)
VH: QVQLQQWGAGLLKPSETLSLTCAVYGGSFSGYYWSWIRQPPGKGLEWIGEINHSGSTNYNPSLKSRVTISVDTSKNQFSLKLSSVTAADTAVYYCARANWGDYFDYWGQGTLVTVSS
VL: DIQMTQSPSSVSASVGDRVTITCRASQGISSWLAWYQQKPGKAPKLLIYAASSLQSGVPSRFSGSGSGTDFTLTISSLQPEDFATYYCQQANSFPPWTFGQGTKVEIKR
notes: Germline library Fab expressed in E. coli; VH was cloned into Plasmid A, which adds CH1 with His6 and Flag tags
ECL signal [1]: 1500 | ECL signal [2]: 2380 | ECL signal [3]: 926 | ECL signal [4]: 1070 | ECL signal [5]: 1060 | ECL signal [6]: 857 | ECL signal [7]: 1040 | ECL signal [8]: 957 | ECL signal [9]: 853

B2: Fab VH1-46_IGHD6-13*01_IGHJ4*01 & B3_IGKJ1*01 (Fab, V domains shown)
VH: QVQLVQSGAEVKKPGASVKVSCKASGYTFTSYYMHWVRQAPGQGLEWMGIINPSGGSTSYAQKFQGRVTMTRDTSTSTVYMELSSLRSEDTAVYYCAREGYSSSWYDYFDYWGQGTLVTVSS
VL: not shown
notes: Germline Fab made in E. coli; VH was cloned into Plasmid A (CH1, His6 and Flag tags) and the kappa VL into Plasmid C (kappa CL)
ECL signal [10]: 1670 | ECL signal [11]: 8590 | ECL signal [12]: 2780 | ECL signal [13]: 2270 | ECL signal [14]: 10300 | ECL signal [15]: 1980

B3: Fab VH1-46_IGHD3-10*01_IGHJ4*01 & B3_IGKJ1*01 (Fab, V domains shown)
VH: QVQLVQSGAEVKKPGASVKVSCKASGYTFTSYYMHWVRQAPGQGLEWMGIINPSGGSTSYAQKFQGRVTMTRDTSTSTVYMELSSLRSEDTAVYYCAREYYYGSGSYYNDYFDYWGQGTLVTVSS
VL: not shown
notes: Tested as a Fab made in E. coli; VH was cloned into Plasmid A (CH1 constant region, His6 and Flag tags); The kappa VL was cloned into Plasmid C (kappa CL)
ECL signal [16]: 460 | ECL signal [17]: 418 | ECL signal [18]: 532 | ECL signal [19]: 428
